Assay results: the supplement of paper PMC10724198
± gives the standard deviation of the averaged measurements.

These sequences were tested on Saccharomyces cerevisiae (assay: protein stability index of tFT-peptide fusion (C-terminal peptide) (PSI (0-1 scale)); higher = more stable (slower turnover)). Conditions: genetic background: wild type; temperature: 30 C.
Method: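 Multiplexed protein stability (MPS) profiling in S. cerevisiae. Random 12-aa peptides (tFT-X12 library) are fused to the C-terminus of a sfGFP-mCherry tandem fluorescent timer, after mCherry and a GGGS linker. Cells are FACS-sorted into 8 mCherry/sfGFP bins and deep-sequenced. The protein stability index (PSI) is the read-weighted bin average, scaled from 0 (unstable) to 1 (stable). Only peptides with >10 reads are reported; cells were grown at 30 °C in SC-His with glucose.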
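Further: PSI is a weighted mean of sequencing reads over stability bins, variants kept only with over 10 reads, mCherry proximal and sfGFP distal, peptide attached via GGGS linker.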

Row | Sequence | protein stability index
1 | WGEGSGRVWEIS | 0.679 ± 0.019
2 | PKRTTHIGRIHE | 0.6875 ± 0.006
3 | GPRGGRLSWAPG | 0.62172 ± 0.00044
4 | PLHVSLVRFGCP | 0.633 ± 0.032
5 | HSPPAGPPHTKT | 0.6694 ± 0.0039
6 | WLAVVGRDGFLG | 0.729 ± 0.016
7 | IPLGGPTPSNYD | 0.721 ± 0.025
8 | LHPPPLPQAPPT | 0.684 ± 0.09
9 | GAWVFLSSRVVH | 0.7227 ± 0.0054
10 | PQPNSSEPTSQK | 0.722 ± 0.011
11 | VMWVGGAAGPVV | 0.663 ± 0.037
12 | FSPSPPPPAPLH | 0.729 ± 0.13
13 | VLADIGSAGIGR | 0.711 ± 0.014
14 | LFRRPLLRPPPF | 0.745 ± 0.024
15 | MSHISPFPIFPC | 0.686 ± 0.0074
16 | QKKKKKKVQKKQ | 0.6702 ± 0.0054
17 | GRTFPLATAPFL | 0.687 ± 0.085
18 | NEGRRNSRRHGG | 0.683 ± 0.028
19 | RLWSSFKRHGAA | 0.743 ± 0.022
20 | KKLGLRLTFLHC | 0.564 ± 0.043
21 | HISSFPSPPPPV | 0.711 ± 0.054
22 | FGGKLVTHGISY | 0.673 ± 0.054
23 | LGVNYWIYSPHG | 0.689 ± 0.01
24 | CLFPPYDYFFPF | 0.734 ± 0.091
25 | GLGGGVGGWLVV | 0.705 ± 0.041

Row | Sequence | protein stability index
26 | TVATTIRVTKVV | 0.582 ± 0.022
27 | PPRRPPRPPPPA | 0.701 ± 0.064
28 | KARNIVESGKTQ | 0.722 ± 0.038
29 | GGEGGWLGEGIG | 0.59 ± 0.0098
30 | GRGSGIAMGVWV | 0.801 ± 0.19
31 | MIFCSPPPLFFP | 0.7 ± 0.0013
32 | PSPPLPHLLLLP | 0.6929 ± 0.0035
33 | DEEVGWGRGGGW | 0.673 ± 0.011
34 | CFGFAGVGSLSC | 0.752 ± 0.13
35 | VGGAGDWRWGVW | 0.805 ± 0.018
36 | HLHGKTERPSHL | 0.811 ± 0.058
37 | FLCNSVAGSLCI | 0.643 ± 0.022
38 | APVQLDNKVVLM | 0.699 ± 0.04
39 | LPNPTSPSPQAA | 0.693 ± 0.025
40 | HRCLCGCLDSVV | 0.726 ± 0.028
41 | CVIGDKRRSKAI | 0.6808 ± 0.0021
42 | GGLIWRHGGGRG | 0.688 ± 0.023
43 | RCPPLWNPLSPL | 0.697 ± 0.034
44 | RLREVVHKYNSI | 0.757 ± 0.086
45 | STILSAEKTKLG | 0.707 ± 0.02
46 | EVKKTFCFSKDI | 0.672 ± 0.011
47 | FYPRPTVPPHGL | 0.585 ± 0.024
48 | PLLTPPFFPPPP | 0.7588 ± 0.0053
49 | WLFSSRDSGACR | 0.8029 ± 0.0011
50 | GPVVAGRLWLWV | 0.641 ± 0.046

Row | Sequence | protein stability index
51 | FVFWCFGSFCSC | 0.553 ± 0.015
52 | SSSRHHTSLFSP | 0.679 ± 0.014
53 | LPPRSPSPHPHR | 0.68 ± 0.0078
54 | GLGWGGVGVAGV | 0.705 ± 0.076
55 | GSSVRGSLGREI | 0.711 ± 0.028
56 | DLPVPRPGTLQV | 0.655 ± 0.045
57 | SVSVFLMGLRGT | 0.694 ± 0.015
58 | TRRGPAGNKPRL | 0.749 ± 0.0092
59 | KSGGWLWVGGGG | 0.748 ± 0.039
60 | GLCPALQFPLHE | 0.68 ± 0.024
61 | TPLNPDSLDRPT | 0.657 ± 0.0097
62 | PPTPPRPPPRTT | 0.69 ± 0.028
63 | GEEEGSQGGCEV | 0.6611 ± 0.0061
64 | APACVAGGGQRL | 0.681 ± 0.081
65 | GGVGGGVRRPGE | 0.669 ± 0.034
66 | PACVLVRRGWYL | 0.7277 ± 0.0029
67 | PLPINAGVRITP | 0.671 ± 0.1
68 | SLPALPPLGLFS | 0.71 ± 0.017
69 | HRASFRIGFRTF | 0.758 ± 0.033
70 | SPRLPPSPPPDL | 0.628 ± 0.023
71 | RPEVRIHITSQS | 0.655 ± 0.017
72 | MNLVEIIRGVRL | 0.7063 ± 0.0051
73 | VSPLSHPPSPAP | 0.702 ± 0.021
74 | NNRLSEDVLCEY | 0.665 ± 0.078
75 | EQSERGIQQGTN | 0.633 ± 0.02

Row | Sequence | protein stability index
76 | FCSLLDSLVGGC | 0.745 ± 0.072
77 | NNTVRTPKLSIE | 0.71584 ± 0.00044
78 | AFPLFTDLTRVP | 0.7692 ± 0.0066
79 | VVVSDFRSCNMS | 0.736 ± 0.043
80 | GWSGCNWCIGVG | 0.584 ± 0.018
81 | ENQGEKQKKKKR | 0.685 ± 0.013
82 | PFAYFSRFLYFP | 0.633 ± 0.03
83 | NESLKHDCVKDT | 0.735 ± 0.13
84 | GGGVVGPGGVLK | 0.705 ± 0.11
85 | SLSSRSVSLFKF | 0.806 ± 0.13
86 | SRCFGGRCQVIE | 0.67 ± 0.02
87 | SGFPSCFRPSFY | 0.702 ± 0.021
88 | REEFHGLKGRGG | 0.671 ± 0.046
89 | EWLCLRGCCVLY | 0.667 ± 0.015
90 | ECGLGGGGGLGV | 0.689 ± 0.077
91 | GGGGGSMDLRDR | 0.697 ± 0.0076
92 | FFVIIPAKSWLG | 0.546 ± 0.03
93 | NYMQVSIKNKKE | 0.641 ± 0.028
94 | IVSNLILSKRCN | 0.652 ± 0.064
95 | LMGFVASGGDDM | 0.786 ± 0.1
96 | GPSATPPGPGLR | 0.792 ± 0.052
97 | LGCSMSPYFVRF | 0.802 ± 0.074
98 | GFWSRIGDLFRG | 0.698 ± 0.037
